According to patent publication US11300572B2, “Methods and systems for producing nanolipoprotein particles” (LAWRENCE LIVERMORE NATIONAL SECURITY, LLC, priority 2007, dated 2022):

Type: physicochemical
Description: Cell-free reactions were then performed. In particular, preparative reactions are carried out using the Invitrogen's Expressway Maxi kit or Roche's RTS 500 ProteoMaster Kit. Basically, lyophilized reaction components (Lysate, Reaction Mix, Amino Acid Mix, Methionine) are dissolved in Reconstitution Buffer and combined as specified by the manufacturer. For co-expression a total of 5 μg of each plasmid DNA (bOp and Δ49A1) was added to the lysate mixture with added DMPC vesicles and retinal cofactor (see below). The reactions were incubated at 30° C. or 37° C. for 4-24 h. For membrane protein survey studies co-expression of 0.2 ug Δ49A1 DNA and 1 ug of each membrane protein DNA was added to the cell-free mixture where [^35S]Met (135 mCi/mmol final) (Perkin Elmer, Waltham, Mass.) was added in place of methionine. The soluble fraction was obtained by centrifuging the reactions at 14000×g for 5 min. Autoradiograms were generated by overnight exposures to proteins separated by SDS-PAGE (data not shown). Percent solubility was determined using ImageJ software (U. S. National Institutes of Health) to quantize autoradiogram bands for the soluble fractions in the presence and absence of apolipoprotein Δ49A1.
All were expressed in the presence of 30-50 μM all-trans-retinal and 2 mg/mL DMPC. […]
The NLPs were also analyzed by SDS Page. […]

B1: bR: bacteriorhodopsin from H. salinarium, seven transmembrane protein, cell-free expressed from bOp with all-trans retinal (protein, UniProt P02945 14-262, looked up)
Bacteriorhodopsin: QAQITGRPEWIWLALGTALMGLGTLYFLVKGMGVSDPDAKKFYAITTLVPAIAFTMYLSMLLGYGLTMVPFGGEQNPIYWARYADWLFTTPLLLLDLALLVDADQGTILALVGADGIMIGTGLVGALTKVYSYRFVWWAISTAAMLYILYVLFFGFTSKAESMRPEVASTFKVLRNVTVVLWSAYPVVWLIGSEGAGIVPLNIETLLFMVLDVSAKVGFGLILLRSRAIFGEAEAPEPSAGDGAAATSD
modifications: all-trans retinal chromophore
- solubility of bR: insoluble
